In data set [1] the target is T1, His-maltose-binding protein (MBP)-CHIP fusion protein, wild type (human), Q9UNE7.
T1 chain: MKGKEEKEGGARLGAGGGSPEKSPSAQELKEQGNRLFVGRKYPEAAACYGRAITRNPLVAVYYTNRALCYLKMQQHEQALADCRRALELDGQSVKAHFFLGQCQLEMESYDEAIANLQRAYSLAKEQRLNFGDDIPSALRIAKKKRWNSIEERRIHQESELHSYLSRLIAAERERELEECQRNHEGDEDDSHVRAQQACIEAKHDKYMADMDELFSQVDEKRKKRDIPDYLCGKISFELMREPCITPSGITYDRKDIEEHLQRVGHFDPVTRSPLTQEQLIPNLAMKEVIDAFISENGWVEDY
The data set can be described thus: SEC; 1 mg MBP-CHIP fusion protein, Superdex 200 Increase 10/300 GL, 20 mM NaH2PO4 pH 7.4, 0.3 ml/min, 4°C; self-association (monomers, dimers, higher oligomers). The note with it: remark: other sources report otherwise.

Data set [2] concerns the molecule itself. Described as above.
Data set [3] deals with the molecule itself. Description: native gel or EMSA; 10 ug MBP fusion protein on a 12% NativePAGE Bis-Tris gel, Coomassie Blue staining; self-association (oligomeric states). In general terms: A gel shift assay detects complexes by their altered migration in electrophoresis.

The stoichiometry N is a count of units in the complex or per binding partner.

B1: His-maltose-binding protein (MBP)-CHIP fusion protein, wild type, Q9UNE7-1 1-303 (enzyme)
chain: MKGKEEKEGGARLGAGGGSPEKSPSAQELKEQGNRLFVGRKYPEAAACYGRAITRNPLVAVYYTNRALCYLKMQQHEQALADCRRALELDGQSVKAHFFLGQCQLEMESYDEAIANLQRAYSLAKEQRLNFGDDIPSALRIAKKKRWNSIEERRIHQESELHSYLSRLIAAERERELEECQRNHEGDEDDSHVRAQQACIEAKHDKYMADMDELFSQVDEKRKKRDIPDYLCGKISFELMREPCITPSGITYDRKDIEEHLQRVGHFDPVTRSPLTQEQLIPNLAMKEVIDAFISENGWVEDY
In data set [1], B1 showed a stoichiometry N of 2.

B2: His-MBP-CHIP fusion protein, N65S (enzyme, human, UniProt Q9UNE7-1 1-303, looked up)
chain: MKGKEEKEGGARLGAGGGSPEKSPSAQELKEQGNRLFVGRKYPEAAACYGRAITRNPLVAVYYTSRALCYLKMQQHEQALADCRRALELDGQSVKAHFFLGQCQLEMESYDEAIANLQRAYSLAKEQRLNFGDDIPSALRIAKKKRWNSIEERRIHQESELHSYLSRLIAAERERELEECQRNHEGDEDDSHVRAQQACIEAKHDKYMADMDELFSQVDEKRKKRDIPDYLCGKISFELMREPCITPSGITYDRKDIEEHLQRVGHFDPVTRSPLTQEQLIPNLAMKEVIDAFISENGWVEDY
notes: CHIP (STUB1), human, full-length cDNA in pETM-41, pathogenic SCAR16 variant N65S; Variant found in patients; made by site-directed mutagenesis; also called CHIP-N65S; MBP-CHIP N65S; source: E. coli BL21-CodonPlus (DE3)-RP, purified (Ni-NTA)
As for B2, the “stoichiometry N” value in data set [2] turned out to be 2.

B3: His-MBP-CHIP fusion protein, S236T (enzyme, human, UniProt Q9UNE7-1 1-303, looked up)
chain: MKGKEEKEGGARLGAGGGSPEKSPSAQELKEQGNRLFVGRKYPEAAACYGRAITRNPLVAVYYTNRALCYLKMQQHEQALADCRRALELDGQSVKAHFFLGQCQLEMESYDEAIANLQRAYSLAKEQRLNFGDDIPSALRIAKKKRWNSIEERRIHQESELHSYLSRLIAAERERELEECQRNHEGDEDDSHVRAQQACIEAKHDKYMADMDELFSQVDEKRKKRDIPDYLCGKITFELMREPCITPSGITYDRKDIEEHLQRVGHFDPVTRSPLTQEQLIPNLAMKEVIDAFISENGWVEDY
notes: CHIP (STUB1), human, full-length cDNA in pETM-41, pathogenic SCAR16 variant S236T; Variant found in patients; made by site-directed mutagenesis; also called MBP-CHIP S236T; source: E. coli BL21-CodonPlus (DE3)-RP, purified (Ni-NTA)
Take B3: in data set [3], the binding result is listed as “binds”.

B4: His-MBP-CHIP fusion protein, M211I (enzyme, human, UniProt Q9UNE7-1 1-303, looked up)
chain: MKGKEEKEGGARLGAGGGSPEKSPSAQELKEQGNRLFVGRKYPEAAACYGRAITRNPLVAVYYTNRALCYLKMQQHEQALADCRRALELDGQSVKAHFFLGQCQLEMESYDEAIANLQRAYSLAKEQRLNFGDDIPSALRIAKKKRWNSIEERRIHQESELHSYLSRLIAAERERELEECQRNHEGDEDDSHVRAQQACIEAKHDKYMADIDELFSQVDEKRKKRDIPDYLCGKISFELMREPCITPSGITYDRKDIEEHLQRVGHFDPVTRSPLTQEQLIPNLAMKEVIDAFISENGWVEDY
notes: CHIP (STUB1), human, full-length cDNA in pETM-41, pathogenic SCAR16 variant M211I; Variant found in patients; made by site-directed mutagenesis; also called MBP-CHIP M211I; source: E. coli BL21-CodonPlus (DE3)-RP, purified (Ni-NTA)
As for B4, the binding result in data set [3] is “binds”.

B5: His-MBP-CHIP fusion protein, T246M (enzyme, human, UniProt Q9UNE7-1 1-303, looked up)
chain: MKGKEEKEGGARLGAGGGSPEKSPSAQELKEQGNRLFVGRKYPEAAACYGRAITRNPLVAVYYTNRALCYLKMQQHEQALADCRRALELDGQSVKAHFFLGQCQLEMESYDEAIANLQRAYSLAKEQRLNFGDDIPSALRIAKKKRWNSIEERRIHQESELHSYLSRLIAAERERELEECQRNHEGDEDDSHVRAQQACIEAKHDKYMADMDELFSQVDEKRKKRDIPDYLCGKISFELMREPCIMPSGITYDRKDIEEHLQRVGHFDPVTRSPLTQEQLIPNLAMKEVIDAFISENGWVEDY
notes: CHIP (STUB1), human, full-length cDNA in pETM-41, pathogenic SCAR16 variant T246M; Variant found in patients; made by site-directed mutagenesis; also called CHIP-T246M; MBP-CHIP T246M; source: E. coli BL21-CodonPlus (DE3)-RP, purified (Ni-NTA)
B5: in data set [3], the binding result is “binds”.

B6: His-MBP-CHIP fusion protein, K145Q (enzyme, human, UniProt Q9UNE7-1 1-303, looked up)
chain: MKGKEEKEGGARLGAGGGSPEKSPSAQELKEQGNRLFVGRKYPEAAACYGRAITRNPLVAVYYTNRALCYLKMQQHEQALADCRRALELDGQSVKAHFFLGQCQLEMESYDEAIANLQRAYSLAKEQRLNFGDDIPSALRIAKKQRWNSIEERRIHQESELHSYLSRLIAAERERELEECQRNHEGDEDDSHVRAQQACIEAKHDKYMADMDELFSQVDEKRKKRDIPDYLCGKISFELMREPCITPSGITYDRKDIEEHLQRVGHFDPVTRSPLTQEQLIPNLAMKEVIDAFISENGWVEDY
notes: CHIP (STUB1), human, full-length cDNA in pETM-41, pathogenic SCAR16 variant K145Q; Variant found in patients; made by site-directed mutagenesis; also called MBP-CHIP K145Q; source: E. coli BL21-CodonPlus (DE3)-RP, purified (Ni-NTA)
As to B6, the binding result in data set [3] is “binds”.

The record behind these values is publication PMC5408658, “In vitro characterization of six STUB1 variants in spinocerebellar ataxia 16 reveals altered structural properties for the encoded CHIP proteins” (Bioscience Reports, 2017).
